Source: patent US20120114667A1 (AstraZeneca / MedImmune, published 2012)
One block for each binder: values may come before it.

Tests used:
[1] = biological target: T1, α4β1 integrin on J6.77 Jurkat cells (UniProt P13612 34-1032; P05556 21-798); experiment: cell-based or functional assay
human α5β1 integrin [2] = biological target: T2, human α5β1 integrin (human, UniProt P08648 42-1049; P05556 21-798); experiment: cell-based or functional assay
human α5β1 integrin [3] = biological target: T2, human α5β1 integrin; experiment: cell-based or functional assay; remark: listed apart in the source
human α5β1 integrin [4] = biological target: T2, human α5β1 integrin; experiment: FACS-based KD titration on K562 cells, 4 C, 5 h, 1 mM MgCl2 and 1 mM CaCl2
Description: To assess the affinity of the antibodies for α5β1, a FACS based KD analysis was employed. […] K562 cells expressing α5β1 were resuspended in filtered HBS buffer containing 1 mM MgCl₂ and 1 mM CaCl₂ at a concentration of approximately 2.5-6 million cells/mL. The cells were kept on ice. Serially diluted (2×) mAbs across 11 wells in a 96-well plate. All mAbs were diluted in HBS described above. Additional HBS and cells were added to each well so that the final volume was 300 μL/well and each well contained approximately 140,000-150,000 cells. The final molecular concentration range for each mAb was 3C5: 3.8 nM -7.5 μM; 5B11: 3.8 nM-7.3 μM. Cells were incubated on a plate shaker for 5 hours at 4° C. and then were spun/washed 3× at 4° C. with HBS. […] The Mean Fluorescence (F) of 7000 “events” was determined using FACS Canto II HTS flow cytometry instrumentation. To calculate affinity, data was fitted nonlinearly to a plot of the Mean Fluorescence as a function of molecular mAb concentration with Scientist 3.0 software using the equation:
In this equation, F=mean fluorescence, LT=total molecular mAb concentration, P′=proportionality constant that relates arbitrary fluorescence units to bound mAb, M=cellular concentration in molarity, n=number of receptors per cell, B=background signal, and KD=equilibrium dissociation constant. […]

mouse α5β1 integrin = biological target: T3, mouse α5β1 integrin (mouse, UniProt P11688 45-999; P09055 21-728, limits assumed); experiment: not described
T3 construct: printed only as mouse integrin / murine integrin; also called mouse integrin; murine integrin
T3 sequence (P11688 45-999 limits assumed, chain 1 of 2): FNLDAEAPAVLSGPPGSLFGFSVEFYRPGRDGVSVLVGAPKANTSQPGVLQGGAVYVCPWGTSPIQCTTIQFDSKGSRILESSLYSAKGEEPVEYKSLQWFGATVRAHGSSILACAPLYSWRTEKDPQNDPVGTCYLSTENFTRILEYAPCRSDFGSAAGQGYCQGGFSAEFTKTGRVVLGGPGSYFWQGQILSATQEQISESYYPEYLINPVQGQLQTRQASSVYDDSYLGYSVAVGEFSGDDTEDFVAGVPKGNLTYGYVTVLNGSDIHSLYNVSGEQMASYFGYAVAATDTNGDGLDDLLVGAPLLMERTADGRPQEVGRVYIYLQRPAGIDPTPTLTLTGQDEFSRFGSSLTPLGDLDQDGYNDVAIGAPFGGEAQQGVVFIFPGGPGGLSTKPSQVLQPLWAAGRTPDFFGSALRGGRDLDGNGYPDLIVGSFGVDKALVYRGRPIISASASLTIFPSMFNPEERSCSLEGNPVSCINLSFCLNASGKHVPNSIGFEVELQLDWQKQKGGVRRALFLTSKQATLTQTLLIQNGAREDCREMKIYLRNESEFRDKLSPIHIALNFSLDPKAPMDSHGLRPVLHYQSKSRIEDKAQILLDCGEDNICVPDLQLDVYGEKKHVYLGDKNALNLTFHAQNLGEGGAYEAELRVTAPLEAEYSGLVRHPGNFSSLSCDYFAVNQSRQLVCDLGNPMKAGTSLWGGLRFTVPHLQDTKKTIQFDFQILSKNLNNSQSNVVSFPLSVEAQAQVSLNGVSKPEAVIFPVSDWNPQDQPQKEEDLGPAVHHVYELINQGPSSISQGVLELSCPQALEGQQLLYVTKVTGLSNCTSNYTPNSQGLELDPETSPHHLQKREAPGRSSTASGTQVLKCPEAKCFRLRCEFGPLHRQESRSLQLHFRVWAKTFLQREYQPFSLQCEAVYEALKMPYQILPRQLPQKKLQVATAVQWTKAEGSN
T3 sequence (P09055 21-728 limits assumed, chain 2 of 2): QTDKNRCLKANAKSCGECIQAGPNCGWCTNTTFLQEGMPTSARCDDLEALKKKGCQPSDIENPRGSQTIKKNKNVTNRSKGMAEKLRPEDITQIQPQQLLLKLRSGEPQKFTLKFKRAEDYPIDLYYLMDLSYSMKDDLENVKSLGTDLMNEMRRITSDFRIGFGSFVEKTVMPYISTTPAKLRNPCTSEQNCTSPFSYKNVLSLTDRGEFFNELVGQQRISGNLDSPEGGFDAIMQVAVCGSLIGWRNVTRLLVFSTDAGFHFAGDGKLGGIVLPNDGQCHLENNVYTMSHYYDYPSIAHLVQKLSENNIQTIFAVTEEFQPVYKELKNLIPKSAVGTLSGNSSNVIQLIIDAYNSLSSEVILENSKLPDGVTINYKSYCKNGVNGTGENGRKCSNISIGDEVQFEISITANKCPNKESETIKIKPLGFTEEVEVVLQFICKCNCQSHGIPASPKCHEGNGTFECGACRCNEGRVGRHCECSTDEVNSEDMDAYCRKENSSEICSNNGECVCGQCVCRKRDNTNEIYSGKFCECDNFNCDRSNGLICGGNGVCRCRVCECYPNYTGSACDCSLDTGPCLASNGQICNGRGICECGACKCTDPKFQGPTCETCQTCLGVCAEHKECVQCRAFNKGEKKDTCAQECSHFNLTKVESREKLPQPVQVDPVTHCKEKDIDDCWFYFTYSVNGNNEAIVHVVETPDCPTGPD

[5] = biological target: T4, β1 integrin chain on HT29 cells (α5 null line) (human, UniProt P05556 21-798); experiment: FACS on HT29 cells (no α5, β1 present)
T4 construct: whole, on cells; β1 is paired with alpha chains other than α5 on these cells; also called β1 chain; beta1
T4 sequence (P05556 21-798): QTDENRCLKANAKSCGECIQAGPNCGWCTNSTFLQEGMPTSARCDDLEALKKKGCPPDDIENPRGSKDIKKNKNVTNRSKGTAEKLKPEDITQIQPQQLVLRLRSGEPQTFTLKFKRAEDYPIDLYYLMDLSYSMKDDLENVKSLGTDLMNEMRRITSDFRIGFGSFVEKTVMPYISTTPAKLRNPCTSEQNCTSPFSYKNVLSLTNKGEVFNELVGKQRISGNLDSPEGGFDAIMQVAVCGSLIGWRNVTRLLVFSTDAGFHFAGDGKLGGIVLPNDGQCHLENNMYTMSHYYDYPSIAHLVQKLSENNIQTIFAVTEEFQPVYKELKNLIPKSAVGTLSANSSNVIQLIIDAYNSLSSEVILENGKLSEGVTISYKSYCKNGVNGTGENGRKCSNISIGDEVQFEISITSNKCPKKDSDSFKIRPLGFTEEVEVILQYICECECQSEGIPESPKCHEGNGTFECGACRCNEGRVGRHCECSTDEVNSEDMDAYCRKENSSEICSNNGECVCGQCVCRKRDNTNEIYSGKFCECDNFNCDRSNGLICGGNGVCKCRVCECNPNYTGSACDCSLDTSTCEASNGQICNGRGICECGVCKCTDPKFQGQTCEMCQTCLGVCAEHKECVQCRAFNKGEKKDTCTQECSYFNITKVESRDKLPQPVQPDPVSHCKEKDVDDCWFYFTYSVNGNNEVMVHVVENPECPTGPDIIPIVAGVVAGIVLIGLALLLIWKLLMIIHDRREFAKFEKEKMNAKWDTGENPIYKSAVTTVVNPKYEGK
Description: To confirm the antibodies bind to the α5 chain or to the α5β1 heterodimer, binding to Human colon adenocarcinoma grade II cells (HT29 cells) was assessed by FACS. […] HT-29 cells were suspended in HBSS with 1% BSA and 1 mM final MnCL₂ at a concentration of 6×10⁵ cells/ml.12.5 uL of the primary antibody was added to 37.5 ul of cells and the plate incubated on ice for 60 minutes. A range of negative controls were included as described previously (indicated as below). In addition as a positive control antibodies to αvβ6 (Mab2077, Chemicon), α5β1 (Mab1909, Chemicon) and av (L230, Chemicon) were included. 100 uL of HBSS buffer was added to dilute primary antibody, the cells pelleted by centrifuging at 1500 rpm for 3 minutes and resuspended in 50 ul Goat anti-human IgG Fc Cy5 or Goat anti Mouse IgG Fc Cy5 secondary at 2 ug/mL. They were then incubated on ice for a further 7 minutes, and 100 uL of HBSS buffer was added to dilute secondary antibody. Finally cells were pelleted by centrifuging at 1500 rpm for 3 minutes, HBSS Buffer/secondary supernatant removed, washed twice in 100 ul of FACS buffer was added and the cells were resuspended and then read on a FACS Calibur HTS. Samples were analyzed using Cell Quest Pro software. The data is represented in Table 6 and confirm that the antibodies are selective for α5β1.

[6] = biological target: T1, α4β1 integrin on J6.77 Jurkat cells; experiment: cell-based or functional assay; remark: listed apart in the source
Macaque α5β1 = biological target: T5, Macaque α5β1 (Macaque); experiment: FACS on macaque PBMC, 1 mM Mn2+
T5 construct: whole, on cells; macaque species not specified; also called monkey α5β1; monkey integrin
Description: To determine whether the antibodies cross reacted to monkey integrin, binding to purified Macaque T-cells was assessed. Macaque PBMCs were previously purified from whole blood, and stored frozen. Macaque PBMCs were suspended in adhesion buffer with HBSS 1% BSA and 1 mM Mn2+ (“FACS buffer”), at a concentration of 4.8×10⁵ live cells per ml. 12.5 uL of the primary antibody was added to 37.5 ul of cells, and incubated at 4° C. for 1 hour. Positive and negative controls were included as indicated. 100 uL of FACs buffer is added to dilute out primary antibody, the cells washed and resuspended in the appropriate secondary at 2 ug/mL (50 uL) with 10 ug/mL 7AAD, and stained on ice for 7 minutes. 100 uL of FACs buffer was added and cells were washed twice in FACS buffer, finally the supernatant removed and the cells were resuspended in 100 uL of buffer.
Samples were read on HTS FACS machine and analyzed using Cell Quest Pro software. The data shown in Table 7 confirm that the antibodies cross react with monkey α5β1.

T1 sequence (P13612 34-1032, chain 1 of 2): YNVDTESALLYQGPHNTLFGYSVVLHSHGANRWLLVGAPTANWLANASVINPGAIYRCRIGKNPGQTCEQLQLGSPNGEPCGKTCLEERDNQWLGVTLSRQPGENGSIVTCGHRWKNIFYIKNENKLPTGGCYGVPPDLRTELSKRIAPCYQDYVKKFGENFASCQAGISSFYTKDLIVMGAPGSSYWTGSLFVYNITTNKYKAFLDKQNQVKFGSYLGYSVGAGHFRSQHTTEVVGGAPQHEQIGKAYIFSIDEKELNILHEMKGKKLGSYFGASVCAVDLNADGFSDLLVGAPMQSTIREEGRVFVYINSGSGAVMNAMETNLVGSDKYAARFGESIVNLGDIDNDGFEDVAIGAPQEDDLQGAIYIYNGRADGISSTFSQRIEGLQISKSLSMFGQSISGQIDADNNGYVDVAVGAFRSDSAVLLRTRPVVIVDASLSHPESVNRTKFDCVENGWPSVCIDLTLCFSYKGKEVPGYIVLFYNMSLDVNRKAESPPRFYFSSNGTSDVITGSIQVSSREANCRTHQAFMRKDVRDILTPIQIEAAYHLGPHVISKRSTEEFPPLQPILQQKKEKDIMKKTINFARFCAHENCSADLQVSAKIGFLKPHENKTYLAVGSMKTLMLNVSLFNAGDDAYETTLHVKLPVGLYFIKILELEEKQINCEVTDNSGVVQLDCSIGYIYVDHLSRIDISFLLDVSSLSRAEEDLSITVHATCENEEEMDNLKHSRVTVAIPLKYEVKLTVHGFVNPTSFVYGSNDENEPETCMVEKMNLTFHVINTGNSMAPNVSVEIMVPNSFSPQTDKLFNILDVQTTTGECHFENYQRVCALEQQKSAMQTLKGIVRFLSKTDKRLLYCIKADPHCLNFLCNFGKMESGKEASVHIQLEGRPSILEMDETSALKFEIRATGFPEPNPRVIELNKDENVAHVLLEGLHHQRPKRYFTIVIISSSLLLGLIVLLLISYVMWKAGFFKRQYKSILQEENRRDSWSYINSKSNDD
T1 sequence (P05556 21-798, chain 2 of 2): as the sequence (P05556 21-798) above
T2 sequence (P08648 42-1049, chain 1 of 2): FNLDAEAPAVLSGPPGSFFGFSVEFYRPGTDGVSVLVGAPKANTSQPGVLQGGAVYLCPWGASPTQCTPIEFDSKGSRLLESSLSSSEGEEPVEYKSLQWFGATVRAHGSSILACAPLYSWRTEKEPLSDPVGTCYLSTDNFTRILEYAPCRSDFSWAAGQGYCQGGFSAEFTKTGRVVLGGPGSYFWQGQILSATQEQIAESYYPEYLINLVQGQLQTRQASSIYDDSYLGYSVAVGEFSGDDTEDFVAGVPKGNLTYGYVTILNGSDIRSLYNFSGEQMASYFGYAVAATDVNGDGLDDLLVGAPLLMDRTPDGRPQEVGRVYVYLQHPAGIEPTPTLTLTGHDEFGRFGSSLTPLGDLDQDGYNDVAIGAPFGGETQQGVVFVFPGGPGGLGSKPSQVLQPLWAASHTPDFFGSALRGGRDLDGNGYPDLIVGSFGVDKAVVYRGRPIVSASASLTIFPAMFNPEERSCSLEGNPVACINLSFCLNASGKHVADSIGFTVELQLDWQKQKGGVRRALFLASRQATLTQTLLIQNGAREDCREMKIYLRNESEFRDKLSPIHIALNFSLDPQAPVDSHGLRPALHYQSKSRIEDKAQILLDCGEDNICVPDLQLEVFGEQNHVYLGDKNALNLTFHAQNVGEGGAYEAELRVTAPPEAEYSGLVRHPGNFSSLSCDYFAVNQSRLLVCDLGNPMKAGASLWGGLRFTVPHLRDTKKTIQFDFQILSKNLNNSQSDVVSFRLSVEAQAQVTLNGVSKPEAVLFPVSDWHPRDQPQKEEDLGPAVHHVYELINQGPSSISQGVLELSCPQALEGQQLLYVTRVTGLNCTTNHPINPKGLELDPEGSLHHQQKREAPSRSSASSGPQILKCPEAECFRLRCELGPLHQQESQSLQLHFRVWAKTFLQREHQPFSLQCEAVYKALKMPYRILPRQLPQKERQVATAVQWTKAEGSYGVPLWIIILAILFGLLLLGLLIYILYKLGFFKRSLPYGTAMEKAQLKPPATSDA
T2 sequence (P05556 21-798, chain 2 of 2): as the sequence (P05556 21-798) above

% Inhibition of adhesion CS1 n = 1 (J6.77 Jurkat on GST-CS-1) [1]: 24%
% Inhibition of adhesion CS1 n = 2 (J6.77 Jurkat on GST-CS-1) [1]: -4%
% Inhibition of cell adhesion n = 1 (K562 on full length FN) (human α5β1 integrin [2]): 97%
% Inhibition of cell adhesion n = 2 (K562 on full length FN) (human α5β1 integrin [2]): 96%
% Inhibition of cell adhesion n = 3 (K562 on GST-FNIII(9-10), no pre-incubation) (human α5β1 integrin [2]): 99%
% Inhibition of cell adhesion n = 4 (K562 on GST-FNIII(9-10), supernatant 1 in 10) (human α5β1 integrin [2]): 97%
% Inhibition of cell adhesion n = 5 (K562 on GST-FNIII(9-10), supernatant 1 in 10) (human α5β1 integrin [2]): 104%
IC50 ng/mL (K562 adhesion to GST-FNIII(9-10)) (human α5β1 integrin [3]): 12.4 ng/mL
Kd (human α5β1 integrin [4]): 0.0147 nM
binding result (mouse α5β1 integrin): no binding
Binding Geomean [5]: 4.04
binding result [5]: no binding
Average % inhibition at 5 ug/ml (J6 adhesion to GST-CS-1) [6]: 0%
Geo Mean on Macaque T-cells IgG detection (Macaque α5β1): 16
B1: 3C5 (antibody, IgG2, V domains shown)
VH: RVQLQESGPGLVKPSQTLSLTCTVSGGSIISGGYFWTWIRQHPGKGLEWIGYIYYSGSTYYSPSLKSRVTISVDTSKNQFSLKLSSVTAADTAVYYCTRAVPAAKGYYSYYGMDVWGQGTTVTVSS
VL: DIVMTQSPLSLPVTPGEPASISCRSSQSLLHSSGYNYLDWFLQKPGQSPQLLIYLSSNRASGVPDRFSGSGSGTDFTLKISRVEAEDVGVYYCMQALQTPFTFGPGTKVDIK
notes: also called MAb 3C5; mAb 3C5

% Inhibition of adhesion CS1 n = 1 (J6.77 Jurkat on GST-CS-1) [1]: 27%
% Inhibition of adhesion CS1 n = 2 (J6.77 Jurkat on GST-CS-1) [1]: -15%
% Inhibition of cell adhesion n = 1 (K562 on full length FN) (human α5β1 integrin [2]): 96%
% Inhibition of cell adhesion n = 2 (K562 on full length FN) (human α5β1 integrin [2]): 98%
% Inhibition of cell adhesion n = 3 (K562 on GST-FNIII(9-10), no pre-incubation) (human α5β1 integrin [2]): 90%
% Inhibition of cell adhesion n = 4 (K562 on GST-FNIII(9-10), supernatant 1 in 10) (human α5β1 integrin [2]): 97%
% Inhibition of cell adhesion n = 5 (K562 on GST-FNIII(9-10), supernatant 1 in 10) (human α5β1 integrin [2]): 102%
IC50 ng/mL (K562 adhesion to GST-FNIII(9-10)) (human α5β1 integrin [3]): 28.4 ng/mL
Kd (human α5β1 integrin [4]): 0.0347 nM
Binding Geomean [5]: 4.62
binding result [5]: no binding
Average % inhibition at 5 ug/ml (J6 adhesion to GST-CS-1) [6]: -9%
Geo Mean on Macaque T-cells IgG detection (Macaque α5β1): 12
B2: 5B11 (antibody, IgG2, V domains shown)
VH: QVQLVESGGGVVQPGRSVRLSCAASGFTFSSYGMHWVRQTPGKGLEWVAIIWYDGGIEYYADSVKGRFTISRDNSKNTLYLQMNSLRAEDTAVYYCARDHRYGSSWFDYWGQGTLVTVSS
VL: DIQMTQSPSSLSASVGDRVTITCRASQGINNYLAWFQQKPGKAPKSLIYAASSLQSGVPSNFSGSGSGTDFTLSISSLQPEDFATYYCQQYKSYPLTFGGGTKVEIR
notes: also called MAb 5B11; mAb 5B11
